{"source": "patent US20150368661A1", "biological_target": "recombinant hemagglutinin (HA) (A/New Caledonia/20/99; Protein Sciences) (influenza A virus A/New Caledonia/20/99 (H1N1))"}
{"substance": "plant-produced anti-influenza bnMAb CR6261 IgG1 (expressed in N. benthamiana) (antibody)", "values": [{"measurement": "Kd", "result": 0.055, "unit": "nM"}]}
